Measured values published in doi:10.1101/2024.12.06.626481 (bioRxiv, 2024).

Biological target: murine IL-21 (mIL-21) (murine, UniProt Q9ES17 18-146)
Experiment: BLI

- binding result: binds
B1: biotinylated murine IL-21 receptor (mIL-21R) (receptor)
chain: not shown
modifications: biotinylated (site not stated)
